In US20020147326A1 (GlaxoSmithKline, published 2002):

Experiments:
[1] = target: T1, human CD28 expressed on the cell surface (human, UniProt P10747 19-220); assay: flow cytometry on PCD28.1.s2.1 cells expressing human CD28
T1 construct: whole, on cells; also called CD28 positive cells; PCD28.1.s2.1 cells
Description: Non-adherent CD28 expressing cells (PCD28.1.s2.1) were used for this assay format. […] All incubations were carried out on ice. […] After washing twice in binding buffer, bound fusion proteins were detected with a 1:2000 dilution of a goat anti-human polyclonal antibody labeled with FITC (Flourescein isothiocyanate, Southern Biotech).

[2] = target: T2, CTLA4-Ig (human, UniProt P16410 36-161); assay: isothermal titration calorimetry, Kd at 37° C., measured at 37° C.
T2 construct: also called CTLA4-Fc; not shown: human IgG1 heavy chain Fc region (hinge, CH2, CH3) of vector COSFcLink
T2 sequence (P16410 other isoform, or with tags, fused parts or gaps): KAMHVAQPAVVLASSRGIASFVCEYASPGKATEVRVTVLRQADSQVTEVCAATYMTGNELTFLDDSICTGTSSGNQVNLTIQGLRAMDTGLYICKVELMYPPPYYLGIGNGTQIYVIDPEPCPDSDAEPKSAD

[3] = target: T2, CTLA4-Ig; assay: isothermal titration calorimetry, in solution, 37° C.
[4] = target: T2, CTLA4-Ig; assay: isothermal titration calorimetry at 44° C., Kd corrected to 37° C. by the van't Hoff equation
[5] = target: T2, CTLA4-Ig; assay: isothermal titration calorimetry, in solution, 44° C.

B1: CD86-Ig (Fc fusion)
chain: APLKIQAYFNETADLPCQFANSQNQSLSELVVFWQDQENLVLNEVYLGKEKFDSVHSKYMGRTSFDSDSWTLRLHNLQIKDKGLYQCIIHHKKPTGMIRIHQMNSELSVLANFSQPEIVPISNITENVYINLTCSSIHGYPEPKKMSVLLRTKNSTIEYDGIMQKSQDNVTELYDVSISLSVSFPDVTSNMTIFCILETDKTRLLSSPFSIELEDPQPPPDHEPKSADKTHTCPPCP
notes: Mature N-terminus LKIQ-, junction PPPDHepksa; also called B7.2-Ig; monomeric CD86-Ig; not shown: human IgG1 heavy chain Fc region (hinge, CH2, CH3) of vector COSFcLink
For B1, the binding result [1] was “no binding”, the Kd [2] was 40 nM and the Kd [3] was 38 nM. The “Molar Ratio (CTLA4-Ig per construct)” value [3] was 0.8, the ΔH [3] was -33 kcal/mol and the Kd [4] was 22 nM. For the same binder, the Kd [5] was 71 nM, the “Molar Ratio (CTLA4-Ig per construct)” value [5] was 0.79 and the ΔH [5] was -34 kcal/mol.
